For series [1], the target named is T1, EcFrmR (Escherichia coli K12) (UniProt P0AAP3).
T1 sequence: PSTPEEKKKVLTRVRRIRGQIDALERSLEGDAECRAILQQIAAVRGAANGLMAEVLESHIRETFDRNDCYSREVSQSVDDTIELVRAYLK
Description: BLI. Conditions: BLItz, 50 mM Tris-HCl pH 8.0, 0.5 M NaCl, 20 C; 100 nM biotinylated DNA loaded on SA tips; EcFrmR concentrations as tetramer.

For series [2], the system named is EcFrmR (Escherichia coli K12). Description: BLI. As to conditions: BLItz, 50 mM Tris-HCl pH 8.0, 0.5 M NaCl, 20 C, 100 nM biotinylated DNA loaded on SA tips, EcFrmR concentrations as tetramer.

Several values for one entry are separate records, joined by “and”; a condition that tells them apart may be missing. Equal entries are not always repeated.

What is called Kd is the free concentration of one partner at which half of the binding sites on the other are occupied at equilibrium, for simple one-to-one binding. Lower therefore signals a tighter complex.

As for “GGCCTTCCCTGCCGATTAGCCCCCCCCCCTTTCCTCTTTGTTTTCCGACCACATTCACCGGATAAATTTTATTCTCCAGTGTTATATACTATAGGGGGGTATGCATTGACATATAGAATACCCCCCTATAGTATATTGCATGCAGATGATGAGGTGCGAAATGCCCAGTACTCCGGAAGAGAAGAAA (double strand) [Pfrm (frmRAB promoter)]”, the dissociation constant Kd in series [1] is 220 nM and 520 nM.
On the same count and under the same terms, the value for “GTTAAGGGCTCAGAATAATCACATTATTTTTTCTCCTAACCATAAAGGATTAGTTTATCGGCGTTAATCTTTTCTCATACACTATCGGGTTAGGGAAAATATCTGGTGTTGGGGACAGAGTCAGCAGCGTATTAGTTGAATGCTTAATATCAGGCTGCTGAATTGTCAGCACTGTGTTTGCGAAGAGGATGCGAAATAAATGAACCCGGTTGATCGTCCACTATTAG (double strand) [PydhY]” was 3600 nM.
Take Pfrm (frmRAB promoter): the dissociation constant Kd in series [2] (Zn(II)4-loaded tetramer, kf 5660 M-1 s-1, kr 0.003 s-1) came to 520 nM; in series [2] (no Zn, no HCHO, kf 13000 M-1 s-1, kr 0.0028 s-1, text ~220, upper limit), 220 nM.
With PydhY, in series [2] (no Zn, no HCHO, kf 1950 M-1 s-1, kr 0.007 s-1, text ~3600), the equilibrium dissociation constant (Kd) was 3600 nM.
